In the nanobody polyreactivity screen of Harvey et al. (2022):

test: yeast display, Sf9 membrane polyspecificity reagent, FACS + sequencing; frameworks hold sequencing errors
How it was run: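 Galactose-induced (36–48 hours) yeast carrying a synthetic nanobody display library were exposed to 10% biotinylated, detergent-solubilized Sf9 membrane reagent at 4 °C for 1 hour. FACS followed streptavidin microbead enrichment, using low and high (top ~1%) gates for expression (anti-HA) and reagent binding (streptavidin). Colony PCR, MiSeq 2 × 250 sequencing and CDR-length filtering followed. Labels for polyreactivity reflect the gate of origin.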

| Sequence | polyreactivity (PSR sort gate) |
| --- | --- |
| QVQLVESGGGLVQAGGSLRLSCAASGRIFYGYAMGWYRQAPGKERELVAAITYIGGPYYADSVKGRFTISRDNAKNTVYFQMNSQKPEDTAVYYCATEPFYTYGYYTYPYWYDYWGQGTQVTVSS | low polyreactivity |
| QVQLVESGGGLVQAGGSLRLSCAASGRIFYGYTMGWYRQAPGKERELVASITIRGSRTYYADSVKGRFTISRDNAKNTVYLQMNSLKPEDTAVYSCAADFVPARTVHRYDYWGQGTQVTVSS | low polyreactivity |
| QVQLVESGGGLVQAGGSLRLSCAASGRIFYHNAMGWYRQAPGKERELVAAIRWSGGSTYYADSEKGRFTISRDNAKNTVYLLMKSLKPEDTAVYYWATDVPIREIDEFGYWGQGTQVTVSS | low polyreactivity |
| QVQLVESGGGLVQAGGSLRLSCAASGRIFYHYAMGWYRQAPGKERELVAAITSSGAGTYYADSVKGRFTISRDNAKNTVYLPMNSLKPEDTAVYYCAARRYAWLHSYDMYYWGHGTQVTVSS | high polyreactivity |
| QVQLVESGGGLVQAGGSLRLSCAASGRIFYHYAMGWYRQAPGKERELVATINSSGTSTYYADSVKGRFTISRDNAKNTVYLQMNSLKPEDTALYYCAASTYNKMYYWGQGTHVTVSS | high polyreactivity |
| QVQLVESGGGLVQAGGSLRLSCAASGRIFYINAMGWYRQAPGKEWELVAGITRSGGSTYYADSVKGRFTISRDNAKNTVYLQMNSLKPEDTAVYYCNAGRYARQHSRYDYWGQGTQVTVSS | high polyreactivity |
| QVQLVESGGGLVQAGGSLRLSCAASGRIFYIYAKGWYRPAPGKERELVAASTNGGSTNYAHSVKGRFTISRDNAKNTVYLQMNSLKPEDTEVYYCATDYVGYSFGMYYWGEGTQVTVSS | low polyreactivity |
| QVQLVESGGGLVQAGGSLRLSCAASGRIFYLYAMGWYRQAPGKERELVASINSGDSTHYADSVKGRFTISRDNAKNTVYLQMNSLKPEDTAVYYCATRRYTRSRWYDYWGQGTQVTVSS | low polyreactivity |
| QVQLVESGGGLVQAGGSLRLSCAASGRIFYNYAMGWSRQAPGKERELVAAISGSGGSTYYADSVKGRFTISRDNAKNTVYLQMNSLKPEDTAVYYCSTSGPQYYSRNFDYWGQGTQVTVSS | low polyreactivity |
| QVQLVESGGGLVQAGGSLRLSCAASGRIFYPNAMGWYRQAPGQERELVAAISLSAGSTYYADSVKGRFTISRDNAKNTVSLQMNSLKPEDTAVYYCATQGNSPRGTRRYGYWGQGTQVTVSS | high polyreactivity |
| QVQLVESGGGLVQAGGSLRLSCAASGRIFYPYAMGWYRQAPGIERELVAAIDKGGGSTYYADSVKGRFSISRDNAKNTVYVQMNSLKPEDTAVYYCAAGWEYPYDYWGQGTQVTVSS | low polyreactivity |
| QVQLVESGGGLVQAGGSLRLSCAASGRIFYPYAMGWYRQAPGKERELVAAINWSGDRTYYADSVKGRFTISRDNAKNTVYLQMNSLKPEDTAVYYCAAVYFTRSSGRRYDYWGQGTQVTVSS | high polyreactivity |
| QVQLVESGGGLVQAGGSLRLSCAASGRIFYPYAMGWYRQAPGKERELVAAIRWGGGSTYADSVKGRFTISRDNAKNTVYLQMNSLKPEDTAVYYCAAKSYPYYGYPGAYDYWGQGTQVTVSS | low polyreactivity |
| QVQLVESGGGLVQAGGSLRLSCAASGRIFYPYAMGWYRQAPGKERELVAAITSGGSTYYADSVKGRFTISRDNAKNTVYFQMNSLKPEDTAVYYCAADVVDLYLLDYWGQGTQVTVSS | low polyreactivity |
| QVQLVESGGGLVQAGGSLRLSCAASGRIFYPYAMGWYRQAPGKERELVARITWTTTSTYYADSVKGRFTISRDNAKNTVYLQMNSLKPDDTAVYYCAADGRVRTWGNLRDYWGQGTQVTVSS | high polyreactivity |
| QVQLVESGGGLVQAGGSLRLSCAASGRIFYPYAMGWYRQAPGTERELVAAISYSGGSTFYADSVKGRFTISRDNAKNTVYFQMNSLKPEDTAVYFCNKVWFARYWYRDFDYWGQGTQVTVSS | high polyreactivity |
| QVQLVESGGGLVQAGGSLRLSCAASGRIFYPYSMGWYRQAPGKERELVAAIRRSGVDTYYADSVKGRFTISRDNAKNTVYLQMNSLKPEDTAVYYCAADPYWFFPHYDSWGQGTQVTVSS | low polyreactivity |
| QVQLVESGGGLVQAGGSLRLSCAASGRIFYPYTMGWYRQAPGKERELVAAISSGSRTNYADSVKGRFTISRDNAKNTVYLQMNSLKPEDTAVYYCAAAAYSYKRVYQTFTFGYWGQGTQVTVSS | high polyreactivity |
| QVQLVESGGGLVQAGGSLRLSCAASGRIFYPYVMGWYRQAPGKERELVAAISDSTGSTYYADSVKGRFTISRDNAKNTVYLQMNSLKPEDTAVYYCAAGWFYATYWRFYYWGQGTLVTVSS | low polyreactivity |
| QVQLVESGGGLVQAGGSLRLSCAASGRIFYQNAMGWSRPAPGKERELVAGITRGGSTYYADSVKGRFTISRDNAKNTVYLQMNSLKPEDTAVYYCAVAFWRTKWYDYWGQGTQVTVSS | low polyreactivity |
| QVQLVESGGGLVQAGGSLRLSCAASGRIFYQNAMGWYRPAPGKERELVADISSGGSTYYADSVKGRFTISRDNAKNTVYLQMNSVKPEDTAVYYCHTPSGPGTVGSYRRKWYGYWGQGTQVTVSS | low polyreactivity |

| Sequence | polyreactivity (PSR sort gate) |
| --- | --- |
| QVQLVESGGGLVQAGGSLRLSCAASGRIFYQYAMGWYRQAPGKEREFVAAISISGTSTYADSVKGRFTISRDNAKNTVYLQMNSLIPEDTAFYYCNVGPRAGWYRSNYDYWGQGTQVTVSS | low polyreactivity |
| QVQLVESGGGLVQAGGSLRLSCAASGRIFYQYVMGWYRQAPGKDRELVAAISRRGGSTYYADSVKGRFTISRDNAKNTVYLQMNSLKPEDTAVYYCAARRRYRRHRYDYWGQGTQVTVSS | high polyreactivity |
| QVQLVESGGGLVQAGGSLRLSCAASGRIFYRNAMGWYRQAPAKERELVAAISWSGGRTYYADSVKGRFTISRDNAKNTVYLQMNSLKPEDTAVYYCNARTGYYTGQYDYWGQGTQVTVSS | high polyreactivity |
| QVQLVESGGGLVQAGGSLRLSCAASGRIFYRNAMGWYRQAPGKEREFVAAISSGGSTYYADSVKGRFTISRDNAKNTVYLQMNSLKPEDTAVYYCATRSPERRVYYTYSGLFDYWGQGTQVTVSS | high polyreactivity |
| QVQLVESGGGLVQAGGSLRLSCAASGRIFYRNVMGWYRQAPGKERELVAAISYRGGSTSYADSVKGRFTISRDNAKNTVYLQMYSLKPEDTAVYYCNAGRIRPAYSDREYWGQGTQVTVSS | low polyreactivity |
| QVQLVESGGGLVQAGGSLRLSCAASGRIFYRYALGWYRQAPGKERELVAVITSSGGRTYYADSVKGRFTISRDNAKNTVYLQMNSLKPEDTAVYYCAATPVGSHYGNYYWGQGTQVTVSS | high polyreactivity |
| QVQLVESGGGLVQAGGSLRLSCAASGRIFYRYAMGWSRPAHGKERELVASISGSGGRTYYADSVKGRFTISRDNAKNTVYLQMNSLKPEDTAVSYCAARIRPSYDWGQGTQVTVSS | high polyreactivity |
| QVQLVESGGGLVQAGGSLRLSCAASGRIFYRYAMGWYRQAPGKERELVAAISSGGSTYADSVKGRFTISRDNAKNTVYLQMNSLKPEDTAVYFCAARLYTYPKGKYWGQGTQVTVSS | high polyreactivity |
| QVQLVESGGGLVQAGGSLRLSCAASGRIFYRYAMGWYRQAPGKERELVATISSGGSTNYADSVKGRFTISRDNAKNTVYLQMNSLKPEDTAVYYCARQSLRYSYVSRDYWGLGTQVTVSS | low polyreactivity |
| QVQLVESGGGLVQAGGSLRLSCAASGRIFYRYAMGWYRQAPGKERELVATITNGGSTNYADSVKGRFTISRDNAMITVYLQMNSLKPEDTAVYYCAASRSRYSVNCYNYWGQGTQVTLSS | high polyreactivity |
| QVQLVESGGGLVQAGGSLRLSCAASGRIFYSNDMGWYRQAPGKERELVAGINYDGGSTYYADSVKGRFTISRDNPKNTVYLQINSLKPEDTAVNYCNVRQVGWFNTPGDYWGQGTQVTVSS | low polyreactivity |
| QVQLVESGGGLVQAGGSLRLSCAASGRIFYSYAMGWYRQAPGKERELVAAISFSVGSTYYADSVKGRFTISRDNAKNTVYLQMNSLKPEDTAVYYCATGWYYTSTTYRSSDFDYWGQGTQVTVSS | low polyreactivity |
| QVQLVESGGGLVQAGGSLRLSCAASGRIFYSYAMGWYRQAPGKERELVAAITESGGSTNYADSVKGRFTISRDNAKNTVYLQMNSLKPEDTEVYYCNARYKLTFNLYNYWGQGTQETVSS | low polyreactivity |
| QVQLVESGGGLVQAGGSLRLSCAASGRIFYSYAMGWYRQAPGKERELVATISSAGSTYYADSVKGRFTISRDNAKNTVYLQMNSLKPEDTAVYYCAARRPRRYGFWGQGTQVTVSS | high polyreactivity |
| QVQLVESGGGLVQAGGSLRLSCAASGRIFYSYARGWYRQAPGKERELVAAITESGGSTNYADSVKGRFTISRDNAKNSVYLQMNSLKPEDSAVYYCNARYKLTFNLYNYRGQGTQVTVSS | low polyreactivity |
| QVQLVESGGGLVQAGGSLRLSCAASGRIFYSYGMGWYRQAPGKERELVATISIGGSTNYADSVKGRFTISRDNAKNTVYLQMNSLKPEDTAVYYCAARGGTLYSTRSYGYWGQGTQVTVSS | high polyreactivity |
| QVQLVESGGGLVQAGGSLRLSCAASGRIFYSYTMGWYRQAPGKEREMVAGINRSVGSTYYADSVKGRFTISRDNAKNTVYLQMNSLKPEDTAVYYCAAGSRRRSYYTFSSVHGHYYWGQGTQVTVSS | high polyreactivity |
| QVQLVESGGGLVQAGGSLRLSCAASGRIFYTYAKGLSRQAPRKERELVATISNSGGSTYYADSVKGRFTISRDNAKNTVYLQMNSLKPEDTAVYSCAKDERAAPSASYAYYYWGQGTLVTVSS | low polyreactivity |
| QVQLVESGGGLVQAGGSLRLSCAASGRIFYVYAMGRYRQAPGKERELVAAINWSGDSTYYADSVKGRFTISRDNAKNTVYLQLNSLKPEDTAVYYCARARPTGYNYWGQGTQVTVSS | high polyreactivity |
| QVQLVESGGGLVQAGGSLRLSCAASGRIFYVYAMGWYRQAPGKERELVADITRDGNTNYADSVKGRFTISRDNAKNTVYLQMNSLKPEDTAVYYCAAGGYPGTTYYGYDYWGQGTQVTVSS | low polyreactivity |
